1 molecule from US20250064910A1 (CHILDREN S MEDICAL CENTER, published 2025) can be followed below.

The experiment addresses T1, IpgC (UniProt P0A2U4 1-155, limits assumed).
T1 construct: Co-expressed with Rhavi-IpaB in E. coli from pETDuet; also called chaperone IpgC
As to the kind of experiment: co-expression in E. coli; chaperone retained with the His-tagged fusion on Ni-NTA until the detergent wash. Here is the method: DNA fragments encoding of His-SseB and SseA or His-IpaB and IpgC were synthesized and cloned into a pETDuet vector containing Rhavi by restriction enzyme digestion and ligation. Sequence-confirmed plasmids were transformed E. coli T7 shuffle express cells and transformants containing the relevant cloned proteins were grown to OD600=1 at 25° C., and protein expression was induced with 0.2 mM IPTG at 16° C. overnight. Cells were spun down and pellets were resuspended in lysis buffer (20 mM Tris-HCl, 500 mM NaCl, pH8.0) and then lysed by sonication. Supernatant was loaded over a Ni-NTA column and SseA or IpgC was washed off column with 0.05% LDAO in lysis buffer; proteins Rhavi-SseB and Rhavi-IpaB were eluted in imidazole buffer. Protein-containing elutions were combined, purified over a gel-filtration column for dimer fractions.

T1 sequence (P0A2U4 whole entry): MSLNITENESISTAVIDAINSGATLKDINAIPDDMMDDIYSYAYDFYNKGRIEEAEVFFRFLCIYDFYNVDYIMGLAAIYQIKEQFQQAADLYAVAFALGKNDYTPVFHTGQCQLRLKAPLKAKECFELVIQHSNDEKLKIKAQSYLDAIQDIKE

B1: Rhavi-IpaB (rhizavidin fused to Shigella IpaB) (other)
chain: FDASNFKDFSSIASASSSWQNQSGSTMIIQVDSFGNVSGQYVNRAQGTGCQNSPYPLTGRVNGTFIAFSVGWNNSTENCNSATGWTGYAQVNGNNTEIVTSWNLAYEGGSGPAIEQGQDTFQYVPTTENKSLLKDGGGSSHNVSTTTTGFPLAKILASTELGDNTIQAANDAANKLFSLTIADLTANQNINTTNAHSTSNILIPELKAPKSLNASSQLTLLIGNLIQILGEKSLTALTNKITAWKSQQQARQQKNLEFSDKINTLLSETEGLTRDYEKQINKLKNADSKIKDLENKINQIQTRLSELDPESPEKKKLSREEIQLTIKKDAAVKDRTLIEQKTLSIHSKLTDKSMQLEKEIDSFSAFSNTASAEQLSTQQKSLTGLASVTQLMATFIQLVGKNNEESLKNDLALFQSLQESRKTEMERKSDEYAAEVRKAEELNRVMGCVGKILGALLTIVSVVAAAFSGGASLALAAVGLALMVTDAIVQAATGNSFMEQALNPIMKAVIEPLIKLLSDAFTKMLEGLGVDSKKAKMIGSILGAIAGALVLVAAVVLVATVGKQAAAKLAENIGKIIGKTLTDLIPKFLKNFSSQLDDLITNAVARLNKFLGAAGDEVISKQIISTHLNQAVLLGESVNSATQAGGSVASAVFQNSASTNLADLTLSKYQVEQLSKYISEAIEKFGQLQEVIADLLASMSNSQANRTDVAKAILQQTTA
notes: also called IpaB fused to rhizavidin; Rhavi-IpaB carrier protein
Take B1: the binding result is “binds”.
